From patent US20150344570A1 (published 2015)

T1: FcgRIIa R type extracellular domain, C-terminal His tag (human, UniProt P12318 34-217)
T1 construct: extracellular domain; Soluble analyte in Biacore; also called FcγRIIa R; FcγRIIa(R); not shown: His tag at the C terminus
T1 sequence (looked up): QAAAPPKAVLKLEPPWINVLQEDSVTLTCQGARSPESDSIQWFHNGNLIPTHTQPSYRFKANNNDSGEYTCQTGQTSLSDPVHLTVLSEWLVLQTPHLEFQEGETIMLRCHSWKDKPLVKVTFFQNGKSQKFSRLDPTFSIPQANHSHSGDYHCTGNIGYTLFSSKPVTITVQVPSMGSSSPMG

T2: FcgRIIa H type extracellular domain, C-terminal His tag (human, UniProt P12318 34-217)
T2 construct: extracellular domain; Soluble analyte in Biacore; also called FcγRIIa H; FcγRIIa(H); not shown: His tag at the C terminus
T2 sequence (looked up): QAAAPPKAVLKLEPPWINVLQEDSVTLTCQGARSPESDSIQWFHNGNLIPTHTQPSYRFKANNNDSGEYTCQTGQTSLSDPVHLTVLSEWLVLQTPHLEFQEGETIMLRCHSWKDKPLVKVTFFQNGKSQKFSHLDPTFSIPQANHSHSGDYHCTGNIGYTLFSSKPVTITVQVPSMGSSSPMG

T3: FcgRIIb extracellular domain, C-terminal His tag (human, UniProt P31994 43-217)
T3 construct: extracellular domain; Soluble analyte in Biacore; also called FcγRIIb; not shown: His tag at the C terminus
T3 sequence (looked up): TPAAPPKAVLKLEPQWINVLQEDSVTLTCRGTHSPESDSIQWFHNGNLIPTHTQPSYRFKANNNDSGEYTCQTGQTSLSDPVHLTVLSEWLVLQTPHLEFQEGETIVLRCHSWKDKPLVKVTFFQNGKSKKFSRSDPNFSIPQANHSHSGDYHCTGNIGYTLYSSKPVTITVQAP

T4: FcgRIIaR (human, UniProt P12318 34-217)
T4 construct: extracellular domain; also called FcγRIIa R; FcγRIIa type R; not shown: His tag at the C terminus
T4 sequence (looked up): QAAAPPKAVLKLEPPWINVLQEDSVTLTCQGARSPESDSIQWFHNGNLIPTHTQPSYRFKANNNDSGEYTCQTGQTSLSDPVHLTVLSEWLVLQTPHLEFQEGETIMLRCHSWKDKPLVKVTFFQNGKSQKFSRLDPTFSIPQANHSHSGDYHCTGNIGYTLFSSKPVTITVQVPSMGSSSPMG

T5: FcgRIIaH (human, UniProt P12318 34-217)
T5 construct: extracellular domain; also called FcγRIIa H; FcγRIIa type H; not shown: His tag at the C terminus
T5 sequence (looked up): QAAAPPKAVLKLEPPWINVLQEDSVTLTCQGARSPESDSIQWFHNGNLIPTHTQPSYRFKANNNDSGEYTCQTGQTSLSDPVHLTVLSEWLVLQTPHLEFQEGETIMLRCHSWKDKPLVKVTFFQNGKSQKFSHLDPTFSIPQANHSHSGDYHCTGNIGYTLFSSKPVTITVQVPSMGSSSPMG

T6: FcgRIIb (human, UniProt P31994 43-217)
T6 construct: extracellular domain; also called FcγRIIb; CD32B; not shown: His tag at the C terminus
T6 sequence (looked up): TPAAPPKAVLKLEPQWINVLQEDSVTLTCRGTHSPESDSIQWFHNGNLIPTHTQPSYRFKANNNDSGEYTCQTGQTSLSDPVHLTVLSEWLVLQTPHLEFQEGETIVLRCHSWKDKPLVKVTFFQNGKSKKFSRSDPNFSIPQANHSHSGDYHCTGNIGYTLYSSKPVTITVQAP


Experiments:
[1] = target: T1, FcgRIIa R type extracellular domain, …; test: SPR (Biacore); KD of H240-Kn120/H240-Hl068/L73-k0 divided by KD of the variant
Procedure: (§1) H240-Kn179/H240-H1089/L73-k0, H240-Kn180/H240-Hl089/L73-k0, H240-Kn192/H240-Hl204/L73-k0, and H240-Kn193/H240-Hl204/L73-k0 were prepared by combining each of H240-Kn192 and H240-Kn193 as an H chain, L73-k0 as the L chain, and H240-Hl089 and H240-Hl204 as the other H chain according to the method described in Reference Example 1. The variants described above were assessed for their binding to FcγR according to the method described in Reference Example 8.
(§2) Analysis of interaction between objective antibody and the FcγR was carried out using Biacore T100 (GE Healthcare), Biacore T200, Biacore A100, and Biacore 4000. HBS-EP+ (GE Healthcare) was used as the running buffer, and the measurement temperature was set to 25° C. Chips produced by immobilizing the antigen peptide by the amine coupling method to a Series S sensor Chip CM5 (GE Healthcare), chips produced by allowing preliminarily biotinylated antigen peptides to interact with and immobilize onto a Series S Sensor Chip SA (certified) (GE Healthcare), chips produced by immobilizing Protein L (ACTIGEN, BioVision) to Series S Sencor Chip CM5 (GE Healthcare), or chips produced by immobilizing Protein A/G (Thermo Scientific) to Series S Sencor Chip CM5 (GE Healthcare) were used. Antibodies of interest were captured onto these chips, and allowed to interact to each FcγR diluted with running buffer. To regenerate and repeatedly use the chip, the antibodies captured onto the chip were washed off by reacting 10 mM glycine-HCl, pH 1.5.

[2] = target: T2, FcgRIIa H type extracellular domain, …; test: as above
Procedure: as §1, §2

[3] = target: T3, FcgRIIb extracellular domain, …; test: as above
Procedure: as §1, §2

[4] = target: T7, FcgRIIIa F type extracellular domain, C-terminal His tag (human, UniProt P08637 17-208); test: as above
T7 construct: extracellular domain; Soluble analyte in Biacore; also called FcγRIIIa F; not shown: His tag at the C terminus
T7 sequence (P08637 17-208): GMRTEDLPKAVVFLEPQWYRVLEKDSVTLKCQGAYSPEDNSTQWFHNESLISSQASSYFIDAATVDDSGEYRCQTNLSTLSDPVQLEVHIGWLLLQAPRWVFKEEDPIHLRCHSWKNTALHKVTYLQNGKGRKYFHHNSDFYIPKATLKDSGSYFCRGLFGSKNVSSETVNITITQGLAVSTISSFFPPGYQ
Procedure: as §1, §2

[5] = target: T8, FcgRIIIa V type extracellular domain, C-terminal His tag (human, UniProt P08637 17-208); test: as above
T8 construct: extracellular domain; Soluble analyte in Biacore; also called FcγRIIIa V; not shown: His tag at the C terminus
T8 sequence (P08637 17-208 F176V): as the sequence (P08637 17-208) above, with F160V counted along it
Procedure: as §1, §2

FcgRIIaR = target: T4, FcgRIIaR; test: SPR (Biacore); KD of H240-Kn033/H240-Hl033/L73-k0 divided by KD of the variant
Procedure: (§3) Binding of the produced variants to FcgRIa, FcgRIIaR, FcgRIIaH, FcgRIIb, FcgRIIIaF, and FcgRIIIaV was measured according to the method of Reference Example 8.
as §2

FcgRIIaH = target: T5, FcgRIIaH; test: as above
Procedure: as §3, §2

FcgRIIb = target: T6, FcgRIIb; test: as above
Procedure: as §3, §2

FcgRIIIaF = target: T9, FcgRIIIaF (human, UniProt P08637 17-208); test: as above
T9 construct: extracellular domain; also called FcγRIIIa F; not shown: His tag at the C terminus
T9 sequence (P08637 17-208): as the sequence (P08637 17-208) above
Procedure: as §3, §2

FcgRIIIaV = target: T10, FcgRIIIaV (human, UniProt P08637 17-208); test: as above
T10 construct: extracellular domain; also called FcγRIIIa V; not shown: His tag at the C terminus
T10 sequence (P08637 17-208 F176V limits assumed): as the sequence (P08637 17-208) above, with F160V counted along it
Procedure: as §3, §2

Row | relative KD [1] | relative KD [2] | relative KD [3] | relative KD [4] | relative KD [5] | fold 2aR (FcgRIIaR) | fold 2aH (FcgRIIaH) | fold 2b (FcgRIIb) | fold 3aF (FcgRIIIaF) | fold 3aV (FcgRIIIaV) | Binder
1 | 1.3 | 1.2 | 0.5 | 0.2 | 0.2 | – | – | – | – | – | H240-Kn193/H240-Hl204/L73-k0 (antibody, human IgG1, kappa, H240-Kn193 is H240-Kn120 with Y235N and E294R; also called H240-Kn193/H240-HI204/L73-k0) heavy 1: QDQLVQSGAEVKKPGASVKVSCKASGFNIKDTYIQWVRQAPGQGLEWMGRIDPLRKQTKYREKFEGRVTITADTSTNTAYMELSSLRSEDTAVYYCVRSGREFDYWGQGTLVTVSSASTKGPSVFPLAPSSKSTSGGTAALGCLVKDYFPEPVTVSWNSGALTSGVHTFPAVLQSSGLYSLSSVVTVPSSSLGTQTYICNVNHKPSNTKVDKKVEPKSCDKTHTCPPCPAPEYNWGPMVFLFPPKPKDTLMISRTPEVTCVVVDVSDEDPEVKFNWYVDGVEVHNAKTKPRERQYNATYRVVSVLTVLHQDWLNGKEYKCKVSNKDLPAPIEKTISKAKGQPREPQVCTLPPSRDELTKNQVSLWCLVKGFYPSDIAVEWESNGQPENNYKTTPPVLDSDGSFFLYSKLTVDKSRWQQGNVFSCSVMHEALHNHYTQKSLSLSP heavy 2: QDQLVQSGAEVKKPGASVKVSCKASGFNIKDTYIQWVRQAPGQGLEWMGRIDPLRKQTKYREKFEGRVTITADTSTNTAYMELSSLRSEDTAVYYCVRSGREFDYWGQGTLVTVSSASTKGPSVFPLAPSSKSTSGGTAALGCLVKDYFPEPVTVSWNSGALTSGVHTFPAVLQSSGLYSLSSVVTVPSSSLGTQTYICNVNHKPSNTKVDKKVEPKSCDKTHTCPPCPAPELLTGPSVFLFPPKPKDTLMISRTPEVTCVVVDVSHEEPEVKFNWYVDGVEVHNAKTKPREEQYNSTYRVVSVLTVLHQDWLNGKEYKCKVSNDALPKPEEETISKAKGQPREPQVYTLPPSRCELTKNQVSLSCAVKGFYPSDIAVEWESNGQPENNYKTTPPVLDSDGSFFLVSKLTVDKSRWQQGNVFSCSVMHEALHNHYTQKSLSLSP light: DIQMTQSPSSLSASVGDRVTITCRASQDIHKYIAWYQQKPGQAPRLLIQYTSTLQPGVPSRFSGSGSGTDYTFTISSLQPEDIATYYCLQYEQLRTFGGGTKVEIKRTVAAPSVFIFPPSDEQLKSGTASVVCLLNNFYPREAKVQWKVDNALQSGNSQESVTEQDSKDSTYSLSSTLTLSKADYEKHKVYACEVTHQGLSSPVTKSFNRGEC
2 | – | – | – | – | – | 1 fold | 1 fold | 1 fold | 1 fold | 1 fold | H240-Kn033/H240-Hl033/L73-k0 (antibody, human IgG1, kappa, Anti-epiregulin antibody; native IgG1 with only knobs-into-holes alterations) heavy 1: not shown heavy 2: not shown light: DIQMTQSPSSLSASVGDRVTITCRASQDIHKYIAWYQQKPGQAPRLLIQYTSTLQPGVPSRFSGSGSGTDYTFTISSLQPEDIATYYCLQYEQLRTFGGGTKVEIKRTVAAPSVFIFPPSDEQLKSGTASVVCLLNNFYPREAKVQWKVDNALQSGNSQESVTEQDSKDSTYSLSSTLTLSKADYEKHKVYACEVTHQGLSSPVTKSFNRGEC
3 | – | – | – | – | – | 2.2 fold | 0.8 fold | 5.3 fold | 31.9 fold | 15.5 fold | H240-Kn032/H240-Hl032/L73-k0 (antibody, human IgG1, kappa, S239D/A330L/I332E in both H chains) heavy 1: QDQLVQSGAEVKKPGASVKVSCKASGFNIKDTYIQWVRQAPGQGLEWMGRIDPLRKQTKYREKFEGRVTITADTSTNTAYMELSSLRSEDTAVYYCVRSGREFDYWGQGTLVTVSSASTKGPSVFPLAPSSKSTSGGTAALGCLVKDYFPEPVTVSWNSGALTSGVHTFPAVLQSSGLYSLSSVVTVPSSSLGTQTYICNVNHKPSNTKVDKKVEPKSCDKTHTCPPCPAPELLGGPDVFLFPPKPKDTLMISRTPEVTCVVVDVSHEDPEVKFNWYVDGVEVHNAKTKPREEQYNSTYRVVSVLTVLHQDWLNGKEYKCKVSNKALPLPEEKTISKAKGQPREPQVCTLPPSRDELTKNQVSLWCLVKGFYPSDIAVEWESNGQPENNYKTTPPVLDSDGSFFLYSKLTVDKSRWQQGNVFSCSVMHEALHNHYTQKSLSLSP heavy 2: QDQLVQSGAEVKKPGASVKVSCKASGFNIKDTYIQWVRQAPGQGLEWMGRIDPLRKQTKYREKFEGRVTITADTSTNTAYMELSSLRSEDTAVYYCVRSGREFDYWGQGTLVTVSSASTKGPSVFPLAPSSKSTSGGTAALGCLVKDYFPEPVTVSWNSGALTSGVHTFPAVLQSSGLYSLSSVVTVPSSSLGTQTYICNVNHKPSNTKVDKKVEPKSCDKTHTCPPCPAPELLGGPDVFLFPPKPKDTLMISRTPEVTCVVVDVSHEDPEVKFNWYVDGVEVHNAKTKPREEQYNSTYRVVSVLTVLHQDWLNGKEYKCKVSNKALPLPEEKTISKAKGQPREPQVYTLPPSRCELTKNQVSLSCAVKGFYPSDIAVEWESNGQPENNYKTTPPVLDSDGSFFLVSKLTVDKSRWQQGNVFSCSVMHEALHNHYTQKSLSLSP light: DIQMTQSPSSLSASVGDRVTITCRASQDIHKYIAWYQQKPGQAPRLLIQYTSTLQPGVPSRFSGSGSGTDYTFTISSLQPEDIATYYCLQYEQLRTFGGGTKVEIKRTVAAPSVFIFPPSDEQLKSGTASVVCLLNNFYPREAKVQWKVDNALQSGNSQESVTEQDSKDSTYSLSSTLTLSKADYEKHKVYACEVTHQGLSSPVTKSFNRGEC
